This passage reports EC50 of CCL23 for Gαi activation (TRUPATH BRET biosensor: Gαi1-Rluc8, Gβ3, Gγ9-GFP2) in HEK293T cells transfected with untagged CCR1 alone results from publication PMC11116815.

For the assay, the target named is T1, chemokine (C-C motif) receptor (CCR)1 (human (endogenous in THP-1 and human monocytes)) (UniProt P32246).
T1 sequence: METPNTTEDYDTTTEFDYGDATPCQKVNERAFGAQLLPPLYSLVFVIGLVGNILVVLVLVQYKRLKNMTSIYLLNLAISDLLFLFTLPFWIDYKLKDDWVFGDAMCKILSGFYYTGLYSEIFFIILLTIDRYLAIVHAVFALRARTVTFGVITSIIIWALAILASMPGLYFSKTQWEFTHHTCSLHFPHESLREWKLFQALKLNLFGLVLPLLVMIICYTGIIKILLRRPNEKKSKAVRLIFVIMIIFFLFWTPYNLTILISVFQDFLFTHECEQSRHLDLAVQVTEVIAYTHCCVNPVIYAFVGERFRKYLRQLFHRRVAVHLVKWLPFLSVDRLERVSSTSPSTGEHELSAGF

B1: CCL23_(25-99) (ligand)
chain: RFHATSADCCISYTPRSIPCSLLESYFETNSECSKPGVIFLTKKGRRFCANPSDKQVQVCMRMLKLDTRIKTRKN
For the molecule B1, the EC50 of CCL23 for Gαi activation (TRUPATH BRET biosensor: Gαi1-Rluc8, Gβ3, Gγ9-GFP2) in HEK293T cells transfected with untagged CCR1 alone is 0.3 nM.
